# According to the supplement of paper PMC9112550, “Optimization of the antimicrobial peptide Bac7 by deep mutational scanning” (BMC Biology, 2022):
# Test system: Escherichia coli TOP10
# Assay: shrunken log2 fold change of peptide-encoding DNA abundance (4.5 h post-induction vs induction); higher = less antimicrobial activity (less host growth inhibition)
# Conditions: time post-induction: 4.5 h; library: site-saturation at positions 5, 18, 19, 20
# 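Further: peptides expressed intracellularly from a pBAD plasmid library in pooled LB shake-flask culture, induced with 0.3% L-arabinose, DNA abundance read by NGS, three biological replicates, DESeq2 with apeglm shrinkage.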
row,Sequence,shrunken log2 fold change
1,RRIRYRPPRLPRPRPRPMYGPRP,-0.00999
2,RRIRCRPPRLPRPRPRPEQSPRP,0.67
3,RRIRERPPRLPRPRPRPNVTPRP,-0.199
4,RRIRLRPPRLPRPRPRPMLQPRP,-0.0201
5,RRIRARPPRLPRPRPRPCRGPRP,-0.1
6,RRIRSRPPRLPRPRPRPGKGPRP,-0.0961
7,RRIRCRPPRLPRPRPRPITLPRP,-0.441
8,RRIRRRPPRLPRPRPRPTSAPRP,0.274
9,RRIRCRPPRLPRPRPRPEMWPRP,0.166
10,RRIRSRPPRLPRPRPRPPSWPRP,0.482
11,RRIRYRPPRLPRPRPRPYSDPRP,-0.237
12,RRIRWRPPRLPRPRPRPYQDPRP,-0.411
13,RRIRWRPPRLPRPRPRPSPVPRP,-0.0363
14,RRIRLRPPRLPRPRPRPPPKPRP,1.8
15,RRIRDRPPRLPRPRPRPQPYPRP,-0.651
16,RRIRARPPRLPRPRPRPHDPPRP,0.402
17,RRIRQRPPRLPRPRPRPYPQPRP,-0.00227
18,RRIRLRPPRLPRPRPRPTDSPRP,2.57
19,RRIRDRPPRLPRPRPRPPFEPRP,0.254
20,RRIRDRPPRLPRPRPRPEYCPRP,-0.0172
21,RRIRKRPPRLPRPRPRPVCFPRP,0.54
22,RRIRGRPPRLPRPRPRPEGDPRP,1.94
23,RRIRVRPPRLPRPRPRPESAPRP,0.522
24,RRIRIRPPRLPRPRPRPDGGPRP,-0.446
25,RRIRLRPPRLPRPRPRPSYFPRP,-0.452

row,Sequence,shrunken log2 fold change
1,RRIRERPPRLPRPRPRPRNDPRP,-0.478
2,RRIRNRPPRLPRPRPRPMPAPRP,-0.142
3,RRIRWRPPRLPRPRPRPGFDPRP,0.517
4,RRIRPRPPRLPRPRPRPCDVPRP,-0.155
5,RRIRIRPPRLPRPRPRPGALPRP,-0.111
6,RRIRIRPPRLPRPRPRPGMRPRP,0.43
7,RRIRIRPPRLPRPRPRPYMCPRP,-0.318
8,RRIRYRPPRLPRPRPRPKLIPRP,-0.775
9,RRIRKRPPRLPRPRPRPFGKPRP,0.144
10,RRIRRRPPRLPRPRPRPRTVPRP,0.693
11,RRIRSRPPRLPRPRPRPLPIPRP,0.0503
12,RRIRCRPPRLPRPRPRPHWYPRP,-0.714
13,RRIRQRPPRLPRPRPRPSKRPRP,-0.188
14,RRIRMRPPRLPRPRPRPQNPPRP,0.26
15,RRIRDRPPRLPRPRPRPARVPRP,0.948
16,RRIRRRPPRLPRPRPRPAEEPRP,0.618
17,RRIRTRPPRLPRPRPRPDYTPRP,-0.606
18,RRIRPRPPRLPRPRPRPMSSPRP,-0.135
19,RRIRKRPPRLPRPRPRPALKPRP,0.48
20,RRIRERPPRLPRPRPRPTESPRP,5.08
21,RRIRFRPPRLPRPRPRPIMCPRP,-0.273
22,RRIRARPPRLPRPRPRPYEVPRP,-0.0785
23,RRIRVRPPRLPRPRPRPKHKPRP,-0.114
24,RRIRNRPPRLPRPRPRPWQKPRP,-0.18
25,RRIRHRPPRLPRPRPRPIYGPRP,-0.0133

row,Sequence,shrunken log2 fold change
1,RRIRLRPPRLPRPRPRPVLIPRP,-0.303
2,RRIRGRPPRLPRPRPRPGAVPRP,0.961
3,RRIRSRPPRLPRPRPRPMHMPRP,-0.13
4,RRIRIRPPRLPRPRPRPISNPRP,-0.000216
5,RRIRKRPPRLPRPRPRPREVPRP,0.538
6,RRIRGRPPRLPRPRPRPRYMPRP,-0.0195
7,RRIRGRPPRLPRPRPRPQHYPRP,-0.167
8,RRIRYRPPRLPRPRPRPYPWPRP,0.0116
9,RRIRSRPPRLPRPRPRPFWAPRP,-0.00411
10,RRIRMRPPRLPRPRPRPKFQPRP,0.549
11,RRIRMRPPRLPRPRPRPALSPRP,0.539
12,RRIRPRPPRLPRPRPRPAGGPRP,0.269
13,RRIRWRPPRLPRPRPRPEPCPRP,0.157
14,RRIRNRPPRLPRPRPRPGLRPRP,0.0575
15,RRIRDRPPRLPRPRPRPFRTPRP,-0.0508
16,RRIRCRPPRLPRPRPRPADVPRP,-0.391
17,RRIRVRPPRLPRPRPRPMFAPRP,-0.0323
18,RRIRMRPPRLPRPRPRPMGIPRP,-0.0393
19,RRIRDRPPRLPRPRPRPPDWPRP,0.421
20,RRIRQRPPRLPRPRPRPTQDPRP,0.508
21,RRIRGRPPRLPRPRPRPYIEPRP,-0.114
22,RRIRLRPPRLPRPRPRPHRSPRP,0.0989
23,RRIRRRPPRLPRPRPRPMKIPRP,0.186
24,RRIRYRPPRLPRPRPRPLESPRP,-0.0422
25,RRIRFRPPRLPRPRPRPFQPPRP,-0.334

row,Sequence,shrunken log2 fold change
1,RRIRGRPPRLPRPRPRPCGDPRP,0.581
2,RRIRIRPPRLPRPRPRPGGDPRP,0.0406
3,RRIRLRPPRLPRPRPRPGLHPRP,-0.401
4,RRIRWRPPRLPRPRPRPSAEPRP,1.14
5,RRIRIRPPRLPRPRPRPTNWPRP,-0.128
6,RRIRWRPPRLPRPRPRPNTFPRP,2.19
7,RRIRMRPPRLPRPRPRPWIFPRP,0.0735
8,RRIRMRPPRLPRPRPRPIGFPRP,-0.01
9,RRIRSRPPRLPRPRPRPCAIPRP,-0.475
10,RRIRARPPRLPRPRPRPSGCPRP,0.0438
11,RRIRCRPPRLPRPRPRPSYEPRP,-0.374
12,RRIRMRPPRLPRPRPRPTDQPRP,1.46
13,RRIRWRPPRLPRPRPRPHQAPRP,0.257
14,RRIRLRPPRLPRPRPRPLDPPRP,0.061
15,RRIRSRPPRLPRPRPRPFGIPRP,-0.172
16,RRIRHRPPRLPRPRPRPIMYPRP,-0.169
17,RRIRYRPPRLPRPRPRPLWSPRP,0.0381
18,RRIRFRPPRLPRPRPRPAPGPRP,0.668
19,RRIRCRPPRLPRPRPRPTAQPRP,0.301
20,RRIRGRPPRLPRPRPRPMDPPRP,0.00995
21,RRIRPRPPRLPRPRPRPCGGPRP,0.224
22,RRIRMRPPRLPRPRPRPPANPRP,1.17
23,RRIRMRPPRLPRPRPRPASDPRP,0.869
24,RRIRMRPPRLPRPRPRPDKFPRP,0.194
25,RRIRFRPPRLPRPRPRPRTIPRP,-0.219

row,Sequence,shrunken log2 fold change
1,RRIRPRPPRLPRPRPRPLMEPRP,0.0162
2,RRIRNRPPRLPRPRPRPTLLPRP,-0.168
3,RRIRRRPPRLPRPRPRPDPWPRP,0.335
4,RRIRKRPPRLPRPRPRPTQNPRP,1.07
5,RRIRIRPPRLPRPRPRPSIYPRP,-0.925
6,RRIRPRPPRLPRPRPRPVFAPRP,0.155
7,RRIRARPPRLPRPRPRPVRTPRP,1.06
8,RRIRWRPPRLPRPRPRPEEWPRP,-0.0123
9,RRIRHRPPRLPRPRPRPPLAPRP,0.378
10,RRIRPRPPRLPRPRPRPFTEPRP,-0.649
11,RRIRRRPPRLPRPRPRPSAMPRP,0.378
12,RRIRSRPPRLPRPRPRPFEPPRP,-0.268
13,RRIRKRPPRLPRPRPRPTRKPRP,3.78
14,RRIRWRPPRLPRPRPRPCQNPRP,-0.118
15,RRIRIRPPRLPRPRPRPVNSPRP,-0.319
16,RRIRWRPPRLPRPRPRPYEFPRP,-0.00843
17,RRIRNRPPRLPRPRPRPKSYPRP,-0.0423
18,RRIRVRPPRLPRPRPRPMCSPRP,-0.237
19,RRIRYRPPRLPRPRPRPIPMPRP,-0.807
20,RRIRFRPPRLPRPRPRPAYQPRP,-0.135
21,RRIRGRPPRLPRPRPRPQRGPRP,0.119
22,RRIRWRPPRLPRPRPRPIISPRP,-0.14
23,RRIRERPPRLPRPRPRPFMKPRP,-0.0971
24,RRIRLRPPRLPRPRPRPSMAPRP,-0.0685
25,RRIRHRPPRLPRPRPRPKHVPRP,-0.15

row,Sequence,shrunken log2 fold change
1,RRIRSRPPRLPRPRPRPYWCPRP,-0.161
2,RRIRKRPPRLPRPRPRPVTRPRP,0.754
3,RRIRRRPPRLPRPRPRPRMLPRP,0.486
4,RRIRNRPPRLPRPRPRPTRVPRP,0.376
5,RRIRGRPPRLPRPRPRPHMQPRP,-0.121
6,RRIRFRPPRLPRPRPRPNLGPRP,-0.0272
7,RRIRDRPPRLPRPRPRPSACPRP,0.294
8,RRIRNRPPRLPRPRPRPCILPRP,-0.119
9,RRIRFRPPRLPRPRPRPEGEPRP,-0.0563
10,RRIRFRPPRLPRPRPRPHFDPRP,-0.107
11,RRIRLRPPRLPRPRPRPVQQPRP,0.053
12,RRIRARPPRLPRPRPRPTEYPRP,-0.103
13,RRIRDRPPRLPRPRPRPYCVPRP,0.00706
14,RRIRLRPPRLPRPRPRPIFPPRP,0.0478
15,RRIRNRPPRLPRPRPRPNDMPRP,-0.457
16,RRIRRRPPRLPRPRPRPNKKPRP,-0.272
17,RRIRRRPPRLPRPRPRPKLNPRP,0.101
18,RRIRLRPPRLPRPRPRPRLEPRP,0.348
19,RRIRMRPPRLPRPRPRPKYEPRP,0.741
20,RRIRYRPPRLPRPRPRPYGIPRP,-0.064
21,RRIRARPPRLPRPRPRPRWRPRP,0.934
22,RRIRIRPPRLPRPRPRPQGPPRP,-0.0152
23,RRIRGRPPRLPRPRPRPIHIPRP,0.304
24,RRIRGRPPRLPRPRPRPQNVPRP,0.266
25,RRIRKRPPRLPRPRPRPPKVPRP,0.613
